The text below walks through data of patent US20030077740A1, “Presenilin/Crk binding polypeptides (PCBP) and methods of use thereof” (priority 2001, published 2003).

Common to all, as to format: binding
One assay has as its target T1, PS1 (Homo sapiens, UniProt P49768, L392V).
T1 construct: the large hydrophilic loop region of PS1 (amino acids 1-81, 429-468, 263-407, respectively) were inserted into the pGBT9 vector; expressed in transfected cells; host or cells: yeast Y190
Briefly: yeast two-hybrid interaction with PS1. The note with it: yeast two-hybrid system.

Assay [1] concerns the target T2, large hydrophilic loop of PS1 (Homo sapiens, UniProt P49768).
T2 construct: and a large hydrophilic loop (amino acids 263-407); expressed in transfected cells; host or cells: 293T human kidney cells, pCIS2 expression vector
Briefly: co-immunoprecipitation in 293T cells, PS1 loop. The note with it: immunoprecipitation with anti-TAG, 48 hrs after transfection, PS1-FLAG loop. On the procedure: To confirm the yeast two-hybrid data, the interaction between PBP and PSs was assayed in mammalian cells by immunoprecipitation. Human kidney 293-T cells, and monkey kidney COS-7 cells were cultured in Dulbecco's modified Eagle's medium supplemented with 10% fetal calf serum at 37° C. in a 10% CO2 atmosphere. A nine-amino acid TAG epitope ([…]) (SEQ ID NO:6) was incorporated in-frame at the 3′ end of the PBP cDNA (PBP-TAG), and an eight amino acid FLAG epitope ([…]) (SEQ ID NO:7) was attached in frame at the 5′ end of the large hydrophilic loop of PS1 cDNA and at the 3′ end of full length PS1 cDNA as described previously (Kimura, H., Proc. Natl. Acad. Sci. (USA), 90:2165-2169 (1993)). The resulting fragments were inserted into the pCIS2 expression vector (Genentech, San Francisco, Calif.) for transient or constitutive expression. […]
(§1) For immunoprecipitation of the large hydrophilic loop of PSs or Crk with PBP, cells were lysed in RIPA buffer (100 mM NaCl, 0.5% NP-40, 0.5% DOC, 0.1% SDS, 50 mM Tris, pH 7.5, 1 mM PMSF and 1 μg/ml aprotinin, 1 μg/l leupeptin) on ice for 30 min. […] The bound antibodies were detected by the ECL-plus chemiluminescence system (Amersham, Arlington Heights, Ill.).

Assay [2] deals with T3, full length PS1 (Homo sapiens, UniProt P49768).
T3 construct: three different clonal 293T cell lines which stably express full length PS1 were transfected with PBP-TAG; expressed in transfected cells; host or cells: clonal 293T cell lines stably expressing PS1
Briefly: co-immunoprecipitation with full length PS1 in 293T cell lines. The note with it: co-immunoprecipitation, 293T lines stably expressing PS1.
Source text: (§2) To examine the interaction of PBP with the fill length PS molecule, three different clonal 293T cell lines which stably express full length PS1 were transfected with PBP-TAG and the ability of PS1 to bind to PBP assayed by immunoprecipitation. Forty-eight hrs after transfection, cells were lysed and proteins immunoprecipitated with 12CA5 (anti-TAG), which recognizes PBP-TAG (anti-PBP-TAG). The immunoprecipitates were subjected to polyacrylamide gel electrophoresis, transferred to Immobilon-P, and reacted with anti-TAG or an anti-serum against PS1.
as §1, with “min. For immunoprecipitation of full length PS1 with PBP, RIPA buffer with 1% NP40 but without DOC and SDS was used. Cell lysates were spun for 10 min at 10,000 g. The resulting supernatants were preadsorbed with anti-mouse IgG-agarose (Sigma) for 4 hours at 4° C. After centrifugation, antibody 12CA5 and anti-mouse IgG-agarose were added at 4° C. overnight.” for “min.”, “Ill.). […]” for “Ill.).”

Assay [3] concerns the target T4, full length PS1 (Homo sapiens, UniProt P49768, L392V).
T4 construct: three different clonal 293T cell lines which stably express full length PS1 were transfected with PBP-TAG; expressed in transfected cells; host or cells: clonal 293T cell lines stably expressing PS1
Described as above. The note with it: PS1 expressing the L392V mutation, overexpressing cells.
Source text: as §2
as §1, with “min. For immunoprecipitation of full length PS1 with PBP, RIPA buffer with 1% NP40 but without DOC and SDS was used. Cell lysates were spun for 10 min at 10,000 g. The resulting supernatants were preadsorbed with anti-mouse IgG-agarose (Sigma) for 4 hours at 4° C. After centrifugation, antibody 12CA5 and anti-mouse IgG-agarose were added at 4° C. overnight.” for “min.”, “Ill.). […]” for “Ill.).”

Consider “PBP: novel 2027 amino acid protein, 233 kD, binds presenilins and Crk; expressed from cDNA in cells (KYGVVICSFRGSVPQGLVLEIGETVQILEKCEGWYRGVSTKKPNVKGLFPANYIHLK; listed as Mus musculus)”, for which, in the assay with PS1, the “productive interaction with FAD mutant of PS1 (L392V)” value is listed as “productive interactions did not occur”. For the same substance, the “interaction with PS1” value in assay [1] is “interacts”. The “interaction with full length PS1” value with full length PS1 [2] is “interacts”. Besides, the “immune precipitation of PS1 L392V with PBP” value with full length PS1 [3] is listed as “immune precipitate with PBP”.
